Measurements as given in US9555076B2, “Neuregulin based methods and compositions for treating cardiovascular diseases” (Zensun (Shanghai) Science & Technology, Co., Ltd., priority 2002, dated 2017).
Where “and” joins values, the source holds several entries; their conditions need not be identical. Equal entries are not always repeated.

Assays:
[1] = system: heart failure in rat caused by ligation of coronary artery; test: Nagar-Oslen staining of ischemic hypoxic myocardium; type: in vivo, SD rat
Source text: After fixed with 10% formaldehyde, myocardium of the rat was longitudinally cut with equal distance into 3 slices, conventionally embedded with paraffin, section made, HE stained, image analysis for area of fibrotic region of the heart, counted the number of capillary in the fibrotic lesion (counting unit: piece/mm^2); Nagar-Oslen stained, studied the size of ischemic hypoxic region in the myocardium.
In Nagar-Oslen stained section, normal myocardium stained with light yellow color, while ischemic hypoxic area stained deeper with reddish color. Ischemic hypoxic changes could be analyzed with this method and comparison of qualitative and semi-quantitative test could be made.

[2] = system: toxic myocarditis caused by Adriamycin in rat; test: Myocardial pathologic scoring, Adriamycin rat model; type: in vivo, SD rat; conditions: Adriamycin model
Method: Heart was extirpated after thoracotomy (auricle should be reserved), the heart weight was measured after dried with absorbent paper, ratio of heart weight/body weight calculated; outer diameter of the heart was measured at ½ site of the vertically standing heart; medium part of the left ventricle was crosswise cut open, maximal thickness of free wall of the left ventricle measured; the heart was fixed with 10% formaldehyde, paraffin embedded and HE stained, observation of the myocardial structure carried out under optic microscope, give out pathologic score.
Scoring could be performed between grade 1 and grade 2 or between grade 2 and grade 3, e.g. grade 1.5, grade 2.5 etc. 6.3.3.3 Determination of Hemodynamics Index

[3] = system: toxic myocarditis caused by Adriamycin in rat; test: Survival rate, Adriamycin caused toxic myocarditis rat model; type: in vivo, SD rat
Method: rhNRG-1β was injected into the tail vein within 24 hours after the first injection of Adriamycin, the injection of rhNRG-1 β was carried out once daily for 10 days. Dosage was adjusted according to the body weight, volume of the drug administered was 0.2 ml/100 g.
Based on the <<Guidance Principle of New Drug Preclinical Experiment>>, 3.3 mg/kg of Adriamycin was injected into the tail vein, once per week for consecutive 4 injections, establishing Adriamycin caused toxic myocarditis rat model.
rhNRG-1 β was injected into the tail vein within 24 hours after the first injection of Adriamycin. During the experiment, animal survival was dynamically monitored, heart function indexes (maximal rate of pressure increase within left ventricle, […], maximal rate of pressure decrease within left ventricle, −dp/dt, systolic end pressure of left ventricle LVPmax, diastolic end pressure of left ventricle LVPmin) were monitored at the 5th week. Section was made from the heart tissue and pathological changes examined.
Situation of survival was recorded weekly and the survival rate of the various experimental groups was calculated. Survival rate (%)=survival animal number/number of experimental animals×100.

[4] = system: acute myocardial injury caused by viral (Coxsackie B3) infection in mice; test: Serum troponin I (cTnI), mice infected with Coxsackie B3 virus; type: in vivo, BALB/C mice
Method: Severity of myocardial injury was evaluated through determination of the amount of serum cTnI release, with advantage of high specificity and high sensitivity when comparing with other traditional index such as CK, LDH and AST. Therefore, serum cTnI content determination was used as an objective index reflecting the severity of myocardial injury.
At the 8th day of viral injection, body weight of the mice was measured and blood withdrawn from the orbit, serum separated, stored in −20° C. refrigerator and serum cTnI determination with luminous reaction carried out.

B1: rhNRG-1 β: Recombinant human neuregulin fragment of 61 amino acid (SEQ ID NO:4), 3 disulfide bonds, expressed in E. coli (protein, listed as Homo sapiens)
chain: SHLVKCAEKEKTFCVNGGECFMVKDLSNPSRYLCKCPNEFTGDRCQNYVMASFYKAEELYQ
modifications: disulfide (positions not given here)
- red stained (ischemic hypoxic) tissue, Nagar-Oslen stain ([1]; 5 μg/kg): patchy distribution
- red stained (ischemic hypoxic) tissue, Nagar-Oslen stain ([1]; 10 μg/kg): patchy distribution
- red stained (ischemic hypoxic) myocardial cells, Nagar-Oslen stain ([1]; 20 μg/kg): punctuate distribution
- Pathologic scoring ([2]; 10 μg/kg iv qd × 10 d, (I)): 1.83 ± 0.41
- Pathologic scoring ([2]; 10 μg/kg iv qd × 10 d, (II)): 2.167 ± 0.516
- Pathologic scoring ([2]; 20 μg/kg iv qd × 10 d, (I)): 1.17 ± 0.93
- Pathologic scoring ([2]; 20 μg/kg iv qd × 10 d, (II)): 1.667 ± 0.931
- myocardial pathologic score of the section shown in FIG. 20 ([2]; 20 μg/kg testing drug group): 1
- Pathologic scoring ([2]; 40 μg/kg iv qd × 10, (II)): 0.583 ± 0.204
- Pathologic scoring ([2]; 40 μg/kg iv qd × 10 d, (I)): 0.33 ± 0.41
- myocardial pathologic score of the section shown in FIG. 20 ([2]; 40 μg/kg testing drug group): 1
- myocardial pathologic score of the section shown in FIG. 20 ([2]; 130 μg/kg testing drug group (so in the source)): 1.5
- survival rate ([3]; Adriamycin 3.3 mg/kg weekly × 4, 10 μg/kg iv qd 10 days): 60%
- survival rate ([3]; Adriamycin 3.3 mg/kg weekly × 4, 20 μg/kg iv qd 10 days): 90%
- survival rate ([3]; Adriamycin 3.3 mg/kg weekly × 4, 40 μg/kg iv qd 10 days): 85%
- cTnI Mean ± SD ([4]; 7.5 μg/kg iv qd × 5, 8th day, (I)): 29.05 ± 17.06 ng/mL
- cTnI Mean ± SD ([4]; 7.5 μg/kg iv qd × 5, 8th day, (I), listed as rhNRG-1β): 29.05 ± 17.06 ng/mL
- cTnI Mean ± SD ([4]; 7.5 μg/kg iv qd × 5, 8th day, (II)): 26.85 ± 15.20 ng/mL
- cTnI Mean ± SD ([4]; 15 μg/kg iv qd × 5, 8th day, (I)): 19.43 ± 10.76 ng/mL
- cTnI Mean ± SD ([4]; 15 μg/kg iv qd × 5, 8th day, (I), listed as rhNRG-1β): 19.43 ± 10.76 ng/mL
- cTnI Mean ± SD ([4]; 15 μg/kg iv qd × 5, 8th day, (II)): 15.59 ± 14.94 ng/mL
- cTnI Mean ± SD ([4]; 30 μg/kg iv qd × 3, (I)): 13.37 ± 9.53 ng/mL
- cTnI Mean ± SD ([4]; 30 μg/kg iv qd × 3, (II)): 12.32 ± 18.36 ng/mL
- cTnI Mean ± SD ([4]; 30 μg/kg iv qd × 5, 8th day, (I)): 7.98 ± 6.07 ng/mL
- cTnI Mean ± SD ([4]; 30 μg/kg iv qd × 5, 8th day, (I), listed as rhNRG-1β): 7.98 ± 6.07 ng/mL
- cTnI Mean ± SD ([4]; 30 μg/kg iv qd × 5, 8th day, (II)): 0.54 ± 0.53 ng/mL
- cTnI Mean ± SD ([4]; 30 μg/kg iv qd × 5, Example 5 (I)): 1.06 ± 1.32 ng/mL
- cTnI Mean ± SD ([4]; 30 μg/kg iv qd × 5, Example 5 (I), listed as rhNRG-1β): 1.06 ± 1.32 ng/mL
- cTnI Mean ± SD ([4]; 30 μg/kg iv qd × 5, Example 5 (II)): 0.44 ± 0.24 ng/mL
- cTnI Mean ± SD ([4]; 30 μg/kg iv qd × 7, (I)): 1.05 ± 1.2 ng/mL and 1.05 ± 1.20 ng/mL
- cTnI Mean ± SD ([4]; 30 μg/kg iv qd × 7, (I), listed as rhNRG-1β): 1.05 ± 1.20 ng/mL
- cTnI Mean ± SD ([4]; 30 μg/kg iv qd × 7, (II)): 0.51 ± 0.28 ng/mL
